Experiments:
[1] = target: Rpk4 monomer (with Avi and hexa-histidine tags) (SARS-CoV-2 (Wuhan-Hu-1))
[2] = target: Rpk9 monomer (with Avi and hexa-histidine tags) (SARS-CoV-2 (Wuhan-Hu-1))

CR3022 IgG (antibody)
fold decrease of affinity against wild-type RBD [1]: < 3.5 fold
fold decrease of affinity against wild-type RBD [2]: < 3.5 fold

Source: US20250002907A1
